# Results: IntAct's records for PubMed 19853560
# B1: Phosphatidylinositol 3,4,5-trisphosphate 3-phosphatase and dual-specificity protein phosphatase daf-18 (Caenorhabditis elegans), G5EE01 (parent)
# chain: MVTPPPDVPSTSTRSMARDLQENPNRQPGEPRVSEPYHNSIVERIRHIFRTAVSSNRCRTEYQNIDLDCAYITDRIIAIGYPATGIEANFRNSKVQTQQFLTRRHGKGNVKVFNLRGGYYYDADNFDGNVICFDMTDHHPPSLELMAPFCREAKEWLEADDKHVIAVHCKAGKGRTGVMICALLIYINFYPSPRQILDYYSIIRTKNNKGVTIPSQRRYIYYYHKLRERELNYLPLRMQLIGVYVERPPKTWGGGSKIKVEVGNGSTILFKPDPLIISKSNHQRERATWLNNCDTPNEFDTGEQKYHGFVSKRAYCFMVPEDAPVFVEGDVRIDIREIGFLKKFSDGKIGHVWFNTMFACDGGLNGGHFEYVDKTQPYIGDDTSIGRKNGMRRNETPMRKIDPETGNEFESPWQIVNPPGLEKHITEEQAMENYTNYGMIPPRYTISKILHEKHEKGIVKDDYNDRKLPMGDKSYTESGKSGDIRGVGGPFEIPYKAEEHVLTFPVYEMDRALKSKDLNNGMKLHVVLRCVDTRDSKMMEKSEVFGNLAFHNESTRRLQALTQMNPKWRPEPCAFGSKGAEMHYPPSVRYSSNDGKYNGACSENLVSDFFEHRNIAVLNRYCRYFYKQRSTSRSRYPRKFRYCPLIKKHFYIPADTDDVDENGQPFFHSPEHYIKEQEKIDAEKAAKGIENTGPSTSGSSAPGTIKKTEASQSDKVKPATEDELPPARLPDNVRRFPVVGVDFENPEEESCEHKTVESIAGFEPLEHLFHESYHPNTAGNMLRQDYHTDSEVKIAEQEAKAFVDQLLNGQGVLQEFMKQFKVPSDNSFADYVTGQAEVFKAQIALLEQSEDFQRVQANAEEVDLEHTLGEAFERFGHVVEESNGSSKNPKALKTREQMVKETGKDTQKTRNHVLLHLEANHRVQIERRETCPELHPEDKIPRIAHFSENSFSDSNFDQAIYL
# partner: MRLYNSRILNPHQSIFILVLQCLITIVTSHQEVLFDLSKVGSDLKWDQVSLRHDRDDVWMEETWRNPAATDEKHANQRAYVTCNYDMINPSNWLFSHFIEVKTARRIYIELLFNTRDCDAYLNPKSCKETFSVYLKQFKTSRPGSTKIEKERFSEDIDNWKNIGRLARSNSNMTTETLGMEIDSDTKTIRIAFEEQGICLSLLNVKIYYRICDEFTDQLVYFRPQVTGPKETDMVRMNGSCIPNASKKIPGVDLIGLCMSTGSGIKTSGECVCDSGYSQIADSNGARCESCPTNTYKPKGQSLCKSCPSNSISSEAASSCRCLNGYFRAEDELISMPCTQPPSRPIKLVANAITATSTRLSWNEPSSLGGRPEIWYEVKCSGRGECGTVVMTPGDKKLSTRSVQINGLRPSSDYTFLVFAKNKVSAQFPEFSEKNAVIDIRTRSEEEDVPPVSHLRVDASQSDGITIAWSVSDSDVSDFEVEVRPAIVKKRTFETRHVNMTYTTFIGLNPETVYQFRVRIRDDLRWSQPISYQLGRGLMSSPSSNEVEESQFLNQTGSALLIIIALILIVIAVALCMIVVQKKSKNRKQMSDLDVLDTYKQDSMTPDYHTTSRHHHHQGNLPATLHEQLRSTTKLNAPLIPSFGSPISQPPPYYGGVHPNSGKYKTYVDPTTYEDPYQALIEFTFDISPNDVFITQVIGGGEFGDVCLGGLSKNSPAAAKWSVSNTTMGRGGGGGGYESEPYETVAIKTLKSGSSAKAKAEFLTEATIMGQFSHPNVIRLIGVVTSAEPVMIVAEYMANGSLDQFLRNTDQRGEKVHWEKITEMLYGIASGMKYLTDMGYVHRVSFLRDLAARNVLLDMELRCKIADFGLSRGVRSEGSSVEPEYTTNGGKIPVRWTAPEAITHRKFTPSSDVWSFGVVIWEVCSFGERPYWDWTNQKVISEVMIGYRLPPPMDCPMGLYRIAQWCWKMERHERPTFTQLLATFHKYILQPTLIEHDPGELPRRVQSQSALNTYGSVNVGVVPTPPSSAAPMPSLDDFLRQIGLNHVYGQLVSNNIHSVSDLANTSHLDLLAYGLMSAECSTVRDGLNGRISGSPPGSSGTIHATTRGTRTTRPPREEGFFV
# Variants of: B1
# Conditions: with vab1_caeel vab-1, O61460
row,Variant,effect of a mutation on the interaction
1,D137A,increasing interaction
